Data published in article PMC4813576, “Mit1 Transcription Factor Mediates Methanol Signaling and Regulates the Alcohol Oxidase 1 (AOX1) Promoter in Pichia pastoris*”.

T1: Prm1 ZF domain (Pichia pastoris (Komagataella pastoris)) (UniProt C4R754)
T1 sequence: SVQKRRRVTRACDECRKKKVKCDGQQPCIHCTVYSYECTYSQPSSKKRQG

T2: Mit1 ZF domain (Pichia pastoris (Komagataella pastoris)) (UniProt C4R5Q1)
T2 sequence: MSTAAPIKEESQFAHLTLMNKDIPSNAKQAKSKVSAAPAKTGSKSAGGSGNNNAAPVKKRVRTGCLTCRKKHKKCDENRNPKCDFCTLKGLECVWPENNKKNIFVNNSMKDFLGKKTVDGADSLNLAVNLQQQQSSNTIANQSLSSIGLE

T3: Mit1 ZF domain (Pichia pastoris (Komagataella pastoris), UniProt C4R5Q1 1-150)
T3 sequence: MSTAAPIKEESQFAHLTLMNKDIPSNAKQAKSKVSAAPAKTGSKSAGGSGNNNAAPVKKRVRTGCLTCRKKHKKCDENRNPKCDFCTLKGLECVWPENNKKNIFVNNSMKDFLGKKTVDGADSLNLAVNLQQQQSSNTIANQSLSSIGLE

T4: Prm1 ZF domain (Pichia pastoris (Komagataella pastoris), UniProt C4R754 41-90)
T4 chain: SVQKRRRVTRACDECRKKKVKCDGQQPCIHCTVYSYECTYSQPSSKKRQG


How the values were obtained:
[1] = molecular target: T1, Prm1 ZF domain (Pichia pastoris (Komagataella pastoris)); experiment: EMSA; settings: EMSA: 50 mM Tris-HCl pH 8.0, 50 mM NaCl, 1 mM DTT, 0.05% NP-40, 50 ug/ml poly[d(I-C)], 5% glycerol, 30 min at 4 C; about 30 nM probe, 0-1 uM protein. …
[2] = molecular target: T2, Mit1 ZF domain (Pichia pastoris (Komagataella pastoris)); experiment: EMSA; settings: EMSA: 50 mM Tris-HCl pH 8.0, 50 mM NaCl, 1 mM DTT, 0.05% NP-40, 50 ug/ml poly[d(I-C)], 5% glycerol, 30 min at 4 C; about 30 nM probe, 0-1 uM protein. …
Mit1 ZF domain = molecular target: T3, Mit1 ZF domain; experiment: EMSA; EMSA: 50 mM Tris-HCl pH 8.0, 50 mM NaCl, 1 mM DTT, 0.05% NP-40, 50 ug/ml poly[d(I-C)], 5% glycerol, 30 min at 4 C; about 30 nM probe, 0-1 uM protein. Footprinting: 350 ng probe in 40 ul, 30 min at 25 C; settings: protein: recombinant; tags: His6; label: Cy5
Prm1 ZF domain = molecular target: T4, Prm1 ZF domain; experiment: as above; settings: protein: recombinant; tags: His6; label: Cy5

Row | Molecule | binding [1] | binding result (Mit1 ZF domain) | further results
1 | GTTCTTCCCGTTCCGCTCTATCCGATAAGAGGTTGGCTTCCGAGAAGGTTGGTAGTTGGAATGACGTACAAAATGTACAACAAAGCAGATGTTGTTTAGCGCGATCGCCCCAACCCCTCTTGTTGTTAGACAGTCTTATGCATATTTCGTAGACCCGGGACTGTACATTCGTCCGTCCTCAACCATTGGTCATTTGGTAC (double strand) [PMIT1-D] | binds | – | –
2 | TTGCTGTCAAGTAGGGGTTAGAACAGTTAAATTTTGATCATGAACGTTAGGCTATCAGCAGTATTCCCACCAGAATCTTGGAAGCATACAATGTGGAGACAATGCATAATCATCCAAAAAGCGGGTGTTTCCCCATTTGCGTTTCGGCACAGGTGCACCGGGGTTCAGAAGCGATAGAGAGACTGCGCTAAGCATTAATGAGATTATTTTTGAGCATTCGTCAAT (double strand) [PAOX1 W4] | binds | – | binding [2]: no binding
3 | GATAGCACTCTGGATTGATCAGAAACTTCATATCCGGAGACAGATACTTGTCTGTCTTGCATATGGGGCAATATTCTTCAGTATCCATCCGATGATTACGATTAGTATTAGGTTGATGAATAATCCATAATGGTCCCCTGATGGAATATGCTCGCGAAGA (double strand) [PPRM1-A] | binds | – | –
4 | ACAGAATCTGGAGGTGTAAACACCGTCATTCCCTAATCTAAGTTTCTGTCCAGCCGTTTAGAAAGTTCCTCTTCGTCAATAAAGTTTAACTTTGAACGTGAGAGTTGAGCTAATCGGAAATACTCCCGAGAGCACACCCGAGCAGTGAAGCGGGGCATCATCAAAAGAATTAAGGGGTGCTGGGTGCGGATTGCGCGCAGTAGCTGGCATCAATGCCAAACGTAGAACTCATACATTCTCCTATCAGAATCATACGACATCGAGAGATACACCAGCCAGCACCACTTGAACACTCCCAAT (double strand) [PMIT1-A] | binds | – | –
5 | CAATTCCTTCTATTAGGCTACTAACACCATGACTTTATTAGCCTGTCTATCCTGGCCCCCCTGGCGAGGTTCATGTTTGTTTATTTCCGAATGCAACAAGCTCCGCATTACACCCGAACATCACTCCAGATGAGGGCTTTCTGAGTGTGGGGTCAAATAGTTTCATGTTCCCCAAATGGCCCAAAACTGACAGTTTAAACGCTGTCTTG (double strand) [PAOX1 W2] | no binding | – | binding [2]: binds
6 | ATTTTTGAGCATTCGTCAATCAATACCAAACAAGACAAACGGTATGCCGACTTTTGGAAGTTTCTTTTTGACCAACTGGCCGTTAGCATTTCAACGAACCAAACTTAGTTCATCTTGGATGAGATCACGCTTTTGTCATATTAGGTTCCAAGACAGCGTTTAAACTGT (double strand) [PAOX1 W3] | binds | – | binding [2]: binds
7 | W2 delta A delta B (dsDNA) DNA 1: CAATTCATGACTTCTGGCCCCCCTGGCGAGGTTCATGTTTGTTTATTTCCGAATGCAACAAGCTCCGCATTACACCCGAACATCACTCCAGATGAGGGCTTTCTGAGTGTGGGGTCAAATAGTTTCATGTTCCCCAAATGGCCCAAAACTGACAGTTTAAACGCTGTCTTG DNA 2: CAAGACAGCGTTTAAACTGTCAGTTTTGGGCCATTTGGGGAACATGAAACTATTTGACCCCACACTCAGAAAGCCCTCATCTGGAGTGATGTTCGGGTGTAATGCGGAGCTTGTTGCATTCGGAAATAAACAAACATGAACCTCGCCAGGGGGGCCAGAAGTCATGAATTG | – | no binding | –
8 | W2 delta B (dsDNA) DNA 1: CAATTCCTTCTATTAGGCTACTAACACCATGACTTCTGGCCCCCCTGGCGAGGTTCATGTTTGTTTATTTCCGAATGCAACAAGCTCCGCATTACACCCGAACATCACTCCAGATGAGGGCTTTCTGAGTGTGGGGTCAAATAGTTTCATGTTCCCCAAATGGCCCAAAACTGACAGTTTAAACGCTGTCTTG DNA 2: CAAGACAGCGTTTAAACTGTCAGTTTTGGGCCATTTGGGGAACATGAAACTATTTGACCCCACACTCAGAAAGCCCTCATCTGGAGTGATGTTCGGGTGTAATGCGGAGCTTGTTGCATTCGGAAATAAACAAACATGAACCTCGCCAGGGGGGCCAGAAGTCATGGTGTTAGTAGCCTAATAGAAGGAATTG | – | binds | –
9 | W2 delta A (dsDNA) DNA 1: CAATTCATGACTTTATTAGCCTGTCTATCCTGGCCCCCCTGGCGAGGTTCATGTTTGTTTATTTCCGAATGCAACAAGCTCCGCATTACACCCGAACATCACTCCAGATGAGGGCTTTCTGAGTGTGGGGTCAAATAGTTTCATGTTCCCCAAATGGCCCAAAACTGACAGTTTAAACGCTGTCTTG DNA 2: CAAGACAGCGTTTAAACTGTCAGTTTTGGGCCATTTGGGGAACATGAAACTATTTGACCCCACACTCAGAAAGCCCTCATCTGGAGTGATGTTCGGGTGTAATGCGGAGCTTGTTGCATTCGGAAATAAACAAACATGAACCTCGCCAGGGGGGCCAGGATAGACAGGCTAATAAAGTCATGAATTG | – | binds | –
10 | W3 delta B delta C (dsDNA) DNA 1: ACAGTTTAAACGCTGTCTTGGAACCTAATATGACAAAAGCGTGACAAGATGAACTAAGTTTGGTTCGTTGAAATGGCCAGTTGGTCAAAAAGAAACTTCCAAAAGTCGGCATACCGTTTGTCTTGTTTGGTATTGATTGACGAATGCTCAAAAAT DNA 2: ATTTTTGAGCATTCGTCAATCAATACCAAACAAGACAAACGGTATGCCGACTTTTGGAAGTTTCTTTTTGACCAACTGGCCATTTCAACGAACCAAACTTAGTTCATCTTGTCACGCTTTTGTCATATTAGGTTCCAAGACAGCGTTTAAACTGT | – | binds | –
11 | W3 delta D (dsDNA) DNA 1: ACAGTTTAAACGCTGTCTTGGAACCTAATATGACAAAAGCGTGATCTCATCCAAGATGAACTAAGTTTGGTTCGTTGAAATGCTAACGGCCAGTTGGTCAAAAAGAAACTTCCGAATGCTCAAAAAT DNA 2: ATTTTTGAGCATTCGGAAGTTTCTTTTTGACCAACTGGCCGTTAGCATTTCAACGAACCAAACTTAGTTCATCTTGGATGAGATCACGCTTTTGTCATATTAGGTTCCAAGACAGCGTTTAAACTGT | – | binds | binding result (Prm1 ZF domain): no binding
